Assay results published in the supplement of paper PMC10126150.
± gives the standard deviation of the averaged measurements.

What follows are sequences tested on ATP (assay: switch fluorescence ratio, 500 uM ATP over buffer (Cy3 cluster intensity, sum of 5 cycles each) (fold (ratio)); higher = stronger signal-on switching upon ATP binding; sequences stand for … in TCGTCGGCAGCGTCAGATGTGTATAAGAGACAGTTTTTTTTTTTTTTTTTTTTTTTTT…TC). Conditions: aptamer strand: ATP DNA aptamer (quencher-CACCTGGGGGAGTATTGCGGAGGAAGG + anchor), 100 nM annealed; ATP concentration: 500 uM.
Outline: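 Per cluster, summed Cy3 intensity from the target cycles was divided by that from the buffer cycles to give the fluorescence ratio, then averaged per switch-domain sequence. Clusters outside 100-1000 RFU were excluded. The Cy3-labelled switching-strand clusters, on a modified Illumina MiSeq flow-cell, were annealed to 100 nM quencher-labelled ATP aptamer and imaged in selection buffer, then after 15 min with 500 uM ATP at 22 °C, for five cycles with NaOH stripping and re-annealing between them.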
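Also: ATP exposure 15 min at 22 °C before imaging.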

Row | Sequence | switch fluorescence ratio
1 | TCAGGGGTTC | 0.9918 ± 0.0084
2 | TCAGGGTTGA | 1.03 ± 0.044
3 | TCAGGTCTGT | 0.9958 ± 0.0074
4 | TCAGTAATAA | 1.345 ± 0.013
5 | TCAGTAGGCT | 1.043 ± 0.0032
6 | TCAGTCATGT | 0.992 ± 0.028
7 | TCAGTTATTT | 1.04 ± 0.055
8 | TCAGTTGACT | 1.011 ± 0.0055
9 | TCAGTTGTTG | 1 ± 0.045
10 | TCAGTTTGAG | 0.97806 ± 0.0007
11 | TCAGTTTTAT | 0.9726 ± 0.0074
12 | TCATAAGTAT | 0.995 ± 0.086
13 | TCATAGCGCC | 1.01 ± 0.045
14 | TCATAGTTGG | 0.979 ± 0.025
15 | TCATAGTTGT | 1.01 ± 0.051
16 | TCATAGTTTT | 1.01 ± 0.042
17 | TCATATTATC | 1 ± 0.029
18 | TCATATTGGA | 0.979 ± 0.015
19 | TCATATTTGT | 0.981 ± 0.019
20 | TCATATTTTT | 1.006 ± 0.0064
21 | TCATCAAGGG | 0.965 ± 0.012
22 | TCATCGCATG | 1.3 ± 0.016
23 | TCATCGGCTC | 1.32 ± 0.11
24 | TCATCGGGGC | 1.03 ± 0.071
25 | TCATCGGGTC | 1.05 ± 0.017
26 | TCATCGGTTC | 1 ± 0.052

Row | Sequence | switch fluorescence ratio
27 | TCATCGGTTT | 0.977 ± 0.017
28 | TCATCTACTT | 1.02 ± 0.041
29 | TCATCTTAAT | 0.992 ± 0.044
30 | TCATGACAGC | 1 ± 0.034
31 | TCATGAGAGT | 0.998 ± 0.011
32 | TCATGAGGGA | 1.02 ± 0.022
33 | TCATGCTTGT | 0.985 ± 0.035
34 | TCATGGAGGC | 1.02 ± 0.041
35 | TCATGGATTT | 1.01 ± 0.026
36 | TCATGGCACC | 1.05 ± 0.025
37 | TCATGGCGCA | 1.07 ± 0.013
38 | TCATGGGAAG | 1.02 ± 0.077
39 | TCATGGGGGT | 0.995 ± 0.028
40 | TCATGGGGTC | 0.975 ± 0.022
41 | TCATGGGTTT | 0.997 ± 0.04
42 | TCATGTGCAT | 1.129 ± 0.0048
43 | TCATGTTTTG | 0.9969 ± 0.0032
44 | TCATTAAGAT | 0.994 ± 0.053
45 | TCATTAATAG | 0.996 ± 0.012
46 | TCATTAGGAA | 1 ± 0.035
47 | TCATTCCTTT | 1.008 ± 0.0063
48 | TCATTCGGTT | 1.02 ± 0.016
49 | TCATTCTAGG | 1.009 ± 0.0031
50 | TCATTGGGAC | 1.06 ± 0.028
51 | TCATTGGTAA | 0.977 ± 0.047
52 | TCATTGTGCT | 0.975 ± 0.015

Row | Sequence | switch fluorescence ratio
53 | TCATTTAGAG | 0.977 ± 0.019
54 | TCATTTAGGT | 0.967 ± 0.013
55 | TCATTTATGT | 0.9665 ± 0.0014
56 | TCATTTGGGA | 1.008 ± 0.0033
57 | TCCAACTGCT | 1.037 ± 0.0035
58 | TCCAAGGGCA | 1.01 ± 0.015
59 | TCCACACGCT | 2.14 ± 0.25
60 | TCCACATATC | 1.5 ± 0.0073
61 | TCCACGATTA | 1.108 ± 0.011
62 | TCCACTTATT | 1.05 ± 0.093
63 | TCCAGCGCAC | 3.81 ± 1.1
64 | TCCAGCGCGG | 1.14 ± 0.015
65 | TCCAGGACGA | 1.05 ± 0.023
66 | TCCAGGACTA | 1.02 ± 0.015
67 | TCCAGGGGAT | 1.07 ± 0.12
68 | TCCAGGGTTT | 1.06 ± 0.04
69 | TCCAGGTTGG | 1.15 ± 0.048
70 | TCCAGTATGG | 1.012 ± 0.008
71 | TCCAGTTAGG | 0.998 ± 0.051
72 | TCCATATGGT | 0.975 ± 0.023
73 | TCCATCAGTA | 0.985 ± 0.024
74 | TCCATGGGAT | 1.007 ± 0.0014
75 | TCCATGTAA | 1.01 ± 0.045
76 | TCCCACTTCG | 1.03 ± 0.053
77 | TCCCAGTGCT | 1.84 ± 0.21
78 | TCCCATATAT | 1.09 ± 0.014

Row | Sequence | switch fluorescence ratio
79 | TCCCATGTTG | 1.05 ± 0.054
80 | TCCCCCGCCG | 1.09 ± 0.12
81 | TCCCCCTGGT | 1.37 ± 0.069
82 | TCCCCTGGTT | 1.64 ± 0.14
83 | TCCCCTGTGT | 1.86 ± 0.54
84 | TCCCGGGAAT | 0.987 ± 0.031
85 | TCCCGGTAGT | 1.01 ± 0.019
86 | TCCCTAACAC | 1.12 ± 0.023
87 | TCCCTACTGT | 1.02 ± 0.017
88 | TCCCTGGGGG | 1.08 ± 0.11
89 | TCCCTTGGTT | 1.05 ± 0.054
90 | TCCGACTGAT | 1.72 ± 0.05
91 | TCCGAGATCT | 1.08 ± 0.053
92 | TCCGAGGTTT | 1.28 ± 0.044
93 | TCCGATGAGG | 1.05 ± 0.074
94 | TCCGATGCGT | 2.97 ± 2.8
95 | TCCGATGGGG | 1.084 ± 0.0093
96 | TCCGATGTTT | 1.76 ± 0.27
97 | TCCGATTACG | 1.22 ± 0.037
98 | TCCGATTTGT | 1.02 ± 0.08
99 | TCCGCACAGA | 3.41 ± 0.89
100 | TCCGGAGGCA | 2.2 ± 0.059
101 | TCCGGCTGGT | 0.976 ± 0.024
102 | TCCGGGGGGC | 1.15 ± 0.18
103 | TCCGGGGTGC | 2.36 ± 1
104 | TCCGGGTCTG | 1.03 ± 0.072

Row | Sequence | switch fluorescence ratio
105 | TCCGGTACTG | 1.16 ± 0.074
106 | TCCGTCTGTT | 1.003 ± 0.0052
107 | TCCGTGCAAG | 3.03 ± 0.48
108 | TCCGTGCGGT | 1.04 ± 0.066
109 | TCCGTGGGTG | 1.38 ± 0.21
110 | TCCTAGCACT | 1.65 ± 0.12
111 | TCCTAGGCGC | 1.126 ± 0.0049
112 | TCCTAGTCAT | 1.05 ± 0.036
113 | TCCTATGGGG | 0.9886 ± 0.0033
114 | TCCTCACTGT | 1.18 ± 0.034
115 | TCCTCGGGGG | 0.989 ± 0.027
116 | TCCTGAGTAA | 1.55 ± 0.25
117 | TCCTGATTGC | 1.03 ± 0.038
118 | TCCTGGGGAT | 0.99 ± 0.039
119 | TCCTGTATGT | 0.9981 ± 0.0018
120 | TCCTGTTCTG | 1.02 ± 0.041
121 | TCCTTTAACG | 1.031 ± 0.0014
122 | TCCTTTAAGA | 0.998 ± 0.036
123 | TCCTTTTTTG | 1 ± 0.016
124 | TCGAAAAGGA | 1.02 ± 0.026
125 | TCGAAAATGT | 1.01 ± 0.081
126 | TCGAAAGGCA | 1.04 ± 0.031
127 | TCGAAATTTT | 1 ± 0.022
128 | TCGAACCGAG | 1.2 ± 0.024
129 | TCGAACGTTG | 1.034 ± 0.0026
130 | TCGAACTAGG | 1 ± 0.018

Row | Sequence | switch fluorescence ratio
131 | TCGAACTGCT | 1.02 ± 0.02
132 | TCGAAGGGT | 1 ± 0.037
133 | TCGAAGGTTT | 1.01 ± 0.029
134 | TCGAATTTTT | 1.02 ± 0.07
135 | TCGACCCAGC | 1.104 ± 0.0032
136 | TCGACTATTA | 1.05 ± 0.019
137 | TCGAGACTAG | 1.02 ± 0.029
138 | TCGAGCGAAC | 2.1 ± 0.53
139 | TCGAGCTAAT | 1.41 ± 0.11
140 | TCGAGGGGAC | 1.67 ± 1.4
141 | TCGAGGGGAG | 0.978 ± 0.016
142 | TCGAGGGGAT | 1.01 ± 0.027
143 | TCGAGGGGCG | 1.06 ± 0.019
144 | TCGAGGGGGG | 1.05 ± 0.096
145 | TCGAGGGGTA | 1 ± 0.07
146 | TCGAGTAAAA | 0.9902 ± 0.0039
147 | TCGAGTATGT | 0.983 ± 0.012
148 | TCGAGTGCGT | 0.978 ± 0.014
149 | TCGATAGCGA | 1.19 ± 0.028
150 | TCGATCATAA | 0.9901 ± 0.0015
151 | TCGATGCAAG | 1.23 ± 0.015
152 | TCGATGCAGC | 1.45 ± 0.31
153 | TCGATGGGGA | 1.02 ± 0.015
